Experiment [1] deals with T1, RSV G protein of strain A (Ga protein) (respiratory syncytial virus, strain A …, UniProt P03423 66-298).
T1 construct: also called RSV-Ga; RSV-GA2 protein
T1 sequence (looked up): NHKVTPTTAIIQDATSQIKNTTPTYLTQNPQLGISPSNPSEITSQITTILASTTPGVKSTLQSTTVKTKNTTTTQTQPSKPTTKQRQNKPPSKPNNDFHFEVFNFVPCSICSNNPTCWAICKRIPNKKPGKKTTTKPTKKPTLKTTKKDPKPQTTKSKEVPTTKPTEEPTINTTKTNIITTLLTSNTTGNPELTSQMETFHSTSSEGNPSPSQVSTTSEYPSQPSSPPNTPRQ
The experiment can be described thus: Biacore, antibody on chip, recombinant Ga in flow.

The target in experiment [2] is T2, G protein on live RSV virus coated on the plate (strain not stated) (respiratory syncytial virus).
T2 construct: whole, on cells; also called live virus; virus particles
The experiment can be described thus: ELISA on live RSV virus coated on the plate, anti-human Fc-HRP detection.

The target of experiment [3] is T3, Ga derived 12-mer peptide SKPNNDFHFEVF (SEQ ID NO:8) (respiratory syncytial virus, strain A …).
T3 construct: Peptide on an array of overlapping 12-mers
T3 peptide: SKPNNDFHFEVF
The experiment can be described thus: peptide array of overlapping 12-mer Ga peptides probed with 131-2G at 1 ug/ml, chemiluminescence.

Experiment [4] deals with T1, RSV G protein of strain A (Ga protein). The experiment can be described thus: Biacore, ratio of on-rate to off-rate; Biacore, not the ELISA midpoint (4 nM).
Experiment [5] has as its target T4, RSV G protein of strain B (Gb protein) (respiratory syncytial virus, strain B).
T4 construct: also called RSV-Gb; G protein from strain B
The experiment can be described thus: Biacore, antibody on chip, recombinant Gb in flow.

B1: human monoclonal antibody 1G8 (antibody, V domains shown)
VH: QLQLQESGPGLVKPSETLSLTCTVSGDSITSGQYYWAWIRQAPGKGLEWIGSIHYSGSTYQNPSLKSRLTISVDTSRDQISMKLSSVTVAESAVYYCAKQQLSLSPVENWFDPWGQGTLVTVSS
VL: EIVVTQSPVTLSVSPGESAALSCRASRSVGSRLAWYQQKPGQPPRLLIFAASTRATGIPARFSGSGSGTDFTLIISGLQSEDYAVYYCQQYKEWPLFTFGPGTTVDSK
For the molecule B1, the Kd in experiment [1] turned out to be 0.024 nM. In experiment [2], the “EC50 (read off the curve)” value was approximately 0.3 µg/mL.

B2: human monoclonal antibody 3G12 (antibody, V domains shown)
VH: QLQLQESGPGLVKPSETLSLTCTVSGGSISSSNYYWGWIRQPPGKGLEWIASIHDSGSIYYNPSLRSRVTISVDTSKNQFSLKLSSVTAADTAVYYCARHLVWFGELRNNWFDPWGQGTLVTVAS
VL: EIVMTQSPATLSVSPGERATLSCRASQSVNSNLAWYQHKPGQAPRLLIYGASTRATGIPARFSGSGSGTDFTLTISSLQSEDFAVYYCQQYNNWPLFGPGTKVDLK
For the molecule B2, the Kd in experiment [1] is 0.579 nM.

B3: human monoclonal antibody 5D8 (antibody, V domains shown)
VH: QAQLVESGGGVVQPGRSLRLSCAASGFTFSYSGMHWVRQAPGRGLEWLAVISYDGNKMYYADSVKGRFTISRDNSKMTLYLQMNSLRREDTAVYYCAKDGLDYGGDLVYYGMDVWGNGTTVTVSS
VL: SYELTQPPSVSVSPGQTGRITCTGSEASGDALASRYAYWYQHKSGQAPVVLIYKDTERPSGISERFSGSSSGTTVTLIISGVLAEDEADYYCKTSVRNGTSWVFGTGTMLTVL
B3: the Kd in experiment [1] is 4.39 nM.

B4: murine monoclonal antibody 131-2G (antibody, V domains shown)
VH: EVQLQQSGPELVKPGTSVKISCKASGYSFTGFTMNWVKQSHGKNLEWFGLINPFNGNTGYNQKFKGKATLTVDKSSSTAFMELLSLTSEDSAVYYCARSGKSYDYEAWFTYWGQGTLVTVSA
VL: DIVMTQTTLSLPVSLGNQASISCRSSQTIVHTNGNTYLEWYLQKPGQSPKLLIYKVSNRFSGVPDRFSGSGSGTDFILNISRVEAEDLGVYYCFQGSHVPFTFGSGTKLEIKR
notes: also called mAb 1312G
In the case of B4, the binding result in experiment [3] is given as “binds”. Also, the Kd in experiment [4] was found to be 7 nM.

B5: human monoclonal antibody 3D3 (antibody, V domains shown)
VH: EEQLVESGGGLVQPGRSLRLSCVGSGLRFEEHAMHWVRQAPGRGLEWVSGISWNSGSVGYADSVKGRFTTSRDNAKDILFLEMNTLRSEDTALYFCAIMVATTKNDFHYYKDVWGKGTTVTVSS
VL: QIVLTQSPATLSLSPGERATLSCKASQSVSNHLAWYQQKPGQAPRLLIYETSNRATGIPPRFSGSGSGTDFTLTISSLEPEDFAVYYCQQRNNWYTFGQGTKLEIK
For B5, in experiment [1], the Kd turned out to be 0.0011 nM. In addition, the “EC50 (read off the curve)” value in experiment [2] was approximately 0.1 µg/mL.

B6: human monoclonal antibody 1D4 (antibody, V domains shown)
VH: QVQLLQSGAELKKPGASVKVSCQASIDTFSTYYIHWVRQAPGQGLEWLGVINPSGGSTTYAQKFQDRITLTTDTSTRTVYMDLSSLRSEDTAVYYCARVHKGRAEQWQLLHGHFDLWGRGSLVTVSS
VL: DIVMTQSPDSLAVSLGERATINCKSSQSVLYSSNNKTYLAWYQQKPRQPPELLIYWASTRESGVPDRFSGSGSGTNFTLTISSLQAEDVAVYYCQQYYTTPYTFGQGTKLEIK
As for B6, the Kd in experiment [1] stood at 0.23 nM; in experiment [5] it was 0.052 nM.

Values taken from patent US20100285022A1 (TRELLIS RSV, published 2010).
